The nature of the data set: soluble on expression in E. coli; label from the status in PepcDB or PDB records.
In the case of “MAHHHHHHMRAESSGSESQSRQSERTCGVSPGGPGGPGASPSIVVAVRKRPRIPGREDDENDVVRCGENGGPSVTVYEPRTKLDLTPIIEPSSFSYDHVFGEACTNEEVYRGCCQPLLQNVREGGGAVIFAFGQTGSGKTHTMLGTGERPGLYSLAVTELLTMTEHSTMTASFYEAYGAKLYDLLNDRAEVKMLQDEYQNVHIVGITEQIVSSVDDVNALMMRGQQLRAIGTTHANDRSSRSHAVLEIKLKLADSSSESQLGRITFVDLAGSERASDTAETDAKTRREGAEINKSLLALKECIRAMSMRKRHIPFRGSKLTQILRESFVGRCKTCVIAAISPCQGHCEDTLNTLRYADRIKELKGPANPHNGVKPIPCKTCGQPIFIGDRHVCKRQLVVCPHCRQDVDKQELDTHMSECKESPMRCQYCNERMLRSESVGHSRRCARAPIRCGACGATVPRQLIDRHAQQECAEAKVKCRYCGCVQSRQLLAAHEQNCDAAKVACPHCLQFMRKRRLDGHVATCVRNLSRAMHTPRSTALNIIASTSMETSQTLASSSSSIGAQQSIPKSATAQTAASSRASSSHNRNVAAEPAGGQVDLVAADEGTGPLNFTRAHSSRRSSAQLASGVSLANQSQSNRAPGAGGRWNAGALGADEVSAACDSDCGSVVCPYSRYGCPVKVTRLNVAAHLKESMQQHLELVTTYADRVDEQNMQLRRLVIHETDTLSSRVTMERLDK”, the “soluble on expression in E. coli” value is recorded as “not soluble”. Under “MAHHHHHHMRCCSTALRTGRRGPGGWTEPRLQQATSTDFMRDSTGTGGDNNNNNNNDGGKGPSSALKRHFNVNDFSMIERQQMTLTKLMRITMDATFKPKDPDSRTYGGDGATQRAALREELKTMDSRIVPFAHEEILNDYLKNIVELSGPSGQRYDREMLRGRLVGLLFFTETDRSLAFMRLLREFHQRHRRDFVVVAISLGGKEMMDITRQHGFYHCSHRDGATWVQRDTGLMVRPWTPLPRLIVVNGTSGEEITSSGVTAVKAHPNTCFEKWKNGEEGCDWWDYIKTFYM” stands “soluble”; under “MAHHHHHHMRCFRASCCAPSPWQRACSTVASVSDTADLVIVRESPLDNVVLLEMNNGRANVLTPEFISAFLNKLSDLCDPDKSKCSGIILTSKSPGVFSAGLDLNELNTNLSQDRFAQYWSQFQKLFTTLHALPVPLVGAINGHAAAAGCIVALACDYRVMARRHPTKPTHLTIGIAAAKHGFVVPSYVAASMEHVVGFRKAEELLCMGLLLSAGEALKVGLVDEVVEHHDETVVPCLQFMEKLLELPSPAPYWMIKDLSRRHILAPLCTPALRTQDMVSFYNLFSNLQVKKMLAEHAQKFAKK”, “not soluble”. To “MAHHHHHHMRCVRRSVLGSRGLKRPMFNYTRIFSMGITQHTFTGALLEDLRAGGCCGDQTEDNPGSSLRHGELDHFESPEAEAAHVEKVNTVVDDLFSRMPLPEDPMGAALAPTKEEMEEKAEWDVLKEVVRERYQRKIALKEAERVRIDKAMQHYRVDKDIEGGVSGVTGATGDSEKIRKKIERMKQEIVELERRLEAANHDDNL” belongs “not soluble”.

Consider “MAHHHHHHMRLLTHNFLACLKCDTYPLLVTAAEMEEIPVEYDAEFTRRMLARVDYASLRTTFHALREAHESVRGPSHDEGADTAEGALASSELPETMEGADFSDHSAFLRTAHYAMNVVAVRNGTLECPACKTTFSINDFIPNFVPEAK”, for which the “soluble on expression in E. coli” value is “soluble”.

As for “MAHHHHHHMRLTASRALLQQAGEMCTALHWMCRIAARVPESGLSGSQLQALLDDEFPSFSPSEVGAVTLKEAVLRFPELLSVEDGSQLQAKWRVRPTHAHKTQEQRASPSSKPTETYTLPMMKLQQFCTKRARMHRNTYMPLEYVLSKADITDVNIVGEVLHNPDAALDVQAGVRIKPKRTPRAVVAFVDGDALPAVAVDEMCNELNVLKESSIVTIVRQPGSHELSAVDIVCPDVIPTYLSIEKHAHELRLRRPNVRHDVVYMCAASQFNIYADRVALLNDFPDADVYVCCPSMIALVKPKKVIPFE”, the “soluble on expression in E. coli” value is “soluble”. Under “MAHHHHHHMRPSHKRQAQRQHPRQQCSVAHKAQRAPSSVHGTSGVEHLPRDAVVHVALRKQHRPAGQAHRRIKRHRVVPRRHKVAPHKYHSGARHAHSPTHRHRVLAQQEVAVNKRRNRAANCRNTALHRHAQPQRRLHKKPVHVQRTARRQRHAANHQHANSVAEHRRQLRARDVQHAPRQIHVV” stands “soluble”; under “MAHHHHHHMRSNRNGSHSFFFLSVYSWFIFSPFEVFDDEYFLVDEKEKYVFLFVFVFMEEKRICVVVFPVPKVHAAAEIVIVDAVLFPHAADTDELKLCHF”, “not soluble”.

(Values after the DeepSol protein solubility set.)
